Laboratory results reported in publication PMC3986562.

How the values were obtained:
[1] = biological target: F-Actin (UniProt P68135); test: co-sedimentation; Actin pre-polymerized, sedimentated and then incubated with Simiate or the control protein; 100,000 g for 1 h; supernatant and pellet by SDS-PAGE
[2] = biological target: G-Actin (UniProt P68135)
[3] = biological target: F-Actin (UniProt P68135); test: co-sedimentation; G-Actin polymerized 2.5 h at 25°C in polymerization buffer (5 mM Tris pH 8.0, 0.2 mM CaCl2, 1 mM ATP, 0.5 mM DTT, 5 mM KCl, 2 mM MgCl2) with equal amounts (0.125 μg/μl) of Simiate or GST; 100,000 g for 1 h; supernatant and pellet by SDS-PAGE

percent of the total Simiate content in the sediment [1]: 50.8%
decrease in amount of Actin polymerized after a period of 3 h (sedimentation assay), against Actin alone [2]: 29%
percent of the total Simiate content in the sediment [3]: 51.4%
Substance: recombinant Simiate (natural protein)
